Reference: paper PMC6219920 (Developmental cell, 2018)

Biological target: wild type CENP-A complexed with histone H4 (human, UniProt P49450 1-140; P62805 1-103)
Assay: pull-down

B1: MBP-HJURP^1−208 (domain or fragment)
chain: MLGTLRAMEGEDVEDDQLLQKLRASRRRFQRRMQRLIEKYNQPFEDTPVVQMATLTYETPQGLRIWGGRLIKERNEGEIQDSSMKPADRTDGSVQAAAWGPELPSHRTVLGADSKSGEVDATSDQEESVAWALAPAVPQSPLKNELRRKYLTQVDILLQGAEYFECAGNRAGRDVRVTPLPSLASPAVPAPGYCSRISRKSPGDPAKP
B1: binds.
